Kd, koff and kon data for one molecule are collected here from patent publication US20240383982A1 (Genmab, published 2024).

For this experiment, the target named is T1, recombinant hIgG1 Fc-tagged cynomolgus monkey B7H4 (Creative BioMart, cat. no. VTCN1-1517R) (cynomolgus monkey, UniProt Q7Z7D3 25-259 (human entry)).
T1 construct: Bought protein; also called cynomolgus monkey B7H4 extracellular domain
T1 sequence: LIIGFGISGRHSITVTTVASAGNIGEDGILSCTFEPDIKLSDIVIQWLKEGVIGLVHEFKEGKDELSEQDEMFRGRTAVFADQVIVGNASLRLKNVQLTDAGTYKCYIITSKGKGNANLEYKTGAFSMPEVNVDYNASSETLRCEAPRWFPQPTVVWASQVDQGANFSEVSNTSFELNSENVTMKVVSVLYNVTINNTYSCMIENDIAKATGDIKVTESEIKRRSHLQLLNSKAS
Description: BLI (Octet HTX); Fc-tagged cynomolgus B7H4 coupled to AR2G sensor, bispecific antibody in solution (monovalent B7H4 binding); 2nd experiment (average of n = 3). Here is the method:
In addition, the affinity of for cynomolgus monkey B7H4 was determined by BLI. […] Amine Reactive 2nd Generation (AR2G) biosensors (FortéBio, cat. no. 18-5092) were activated by reaction with 20 mM EDC (N-(3-Dimethylaminopropyl)-N′-ethylcarbodiimide hydrochloride) (FortéBio, cat. no. 18-1033) and 10 mM s-NHS (N-hydroxysulfosuccinimide sodium salt) (FortéBio, cat. no. 18-1067) for 300 s. The activated sensors were loaded with 10 μg/mL recombinant hIgG1 Fc-tagged cynomolgus monkey B7H4 (Creative BioMart, cat. no. VTCN1-1517R) in 10 mM Sodium Acetate pH 4.0 (FortéBio, cat. no. 18-1068) for 600 s and quenched with 1 M ethanolamine pH 8.5 (FortéBio, cat. no. 18-1071) for 300 s. […] A molecular mass of 150 kDa of the antibodies was used for calculations. For each antibody a reference sensor was used, which was incubated with Sample Diluent instead of antibody.
Data were acquired using Data Acquisition Software v9.0.0.49d (FortéBio) and analyzed with Data Analysis Software v9.0.0.12 (FortéBio). Data traces were corrected per antibody by subtraction of the reference sensor. The Y-axis was aligned to the last 10 s of the baseline, Interstep Correction alignment to dissociation and Savitzky-Golay filtering were applied. Data traces with a response<0.05 nm were excluded from analysis. The data was fitted with the 1:1 Global Full fit model using a window of interest for the association and dissociation times set at 100 s and 200 s respectively.
The experiment was performed as described above, with some small exceptions.

B1: bsIgG1-huCD3-H101G-FEALxB7H4-C1-N52S-FEAR (bispecific antibody)
heavy 1: not shown
light 1: not shown
heavy 2: QVQLQQWGAGLLKPSETLSLTCAVYGGSFSGYYWSWIRQPPGKGLEWIGEISHSGSTNYNPSLKSRVTISIDTSKNQFSLKLTSVTAADTAVFYCARGLFNWNFDSWGQGTLVTVSSASTKGPSVFPLAPSSKSTSGGTAALGCLVKDYFPEPVTVSWNSGALTSGVHTFPAVLQSSGLYSLSSVVTVPSSSLGTQTYICNVNHKPSNTKVDKRVEPKSCDKTHTCPPCPAPEFEGGPSVFLFPPKPKDTLMISRTPEVTCVVVAVSHEDPEVKFNWYVDGVEVHNAKTKPREEQYNSTYRVVSVLTVLHQDWLNGKEYKCKVSNKALPAPIEKTISKAKGQPREPQVYTLPPSREEMTKNQVSLTCLVKGFYPSDIAVEWESNGQPENNYKTTPPVLDSDGSFFLYSRLTVDKSRWQQGNVFSCSVMHEALHNHYTQKSLSLSPGK
light 2: DIQMTQSPSSLSASVGDRVTITCRASQGIRNDLGWYQQKPGKAPKRLIYGASSLQSGVPSRFSGSGSGTEFTLTISSLQPEDFATYYCLQHNSYPRTFGQGTTVEIKRTVAAPSVFIFPPSDEQLKSGTASVVCLLNNFYPREAKVQWKVDNALQSGNSQESVTEQDSKDSTYSLSSTLTLSKADYEKHKVYACEVTHQGLSSPVTKSFNRGEC
notes: also called bslgG1-huCD3-H101G-FEALxB7H4-C1-N52S-FEAR; BslgG1-huCD3-H101G-FEALxB7H4-C1-N52S-FEAR
Consider B1, for which the Kd (in general, the free concentration of one partner at which half of the binding sites on the other are occupied at equilibrium, for simple one-to-one binding) turned out to be 25 nM; the koff (usually the rate constant with which the complex falls apart) was found to be 0.0027 s⁻¹; the kon – broadly, the second-order rate constant of association – is 120000 M⁻¹ s⁻¹.
